The target of series [1] is T1, MDCC-SSB (UniProt P0AGE0 1-178, G27C). The series can be described thus: MDCC fluorescence spectra; excess ssRNA70; 3 mM MgCl2; 50 mM Tris-HCl pH 7.5, 3 mM MgCl2, 100 mM (or 200 mM) NaCl; MDCC titrations 25 C; EMSA room temperature, 20 min. As to conditions: protein: recombinant; tags: pET151 vector, His tag (HisTrap purified); MDCC label (at C26, implied); chain copies: 4; single strand.

The target of series [2] is T1, MDCC-SSB. The series can be described thus: MDCC fluorescence spectra; excess ssDNA70; 3 mM MgCl2; 50 mM Tris-HCl pH 7.5, 3 mM MgCl2, 100 mM (or 200 mM) NaCl; MDCC titrations 25 C; EMSA room temperature, 20 min. To be noted: protein: recombinant; tags: pET151 vector, His tag (HisTrap purified); MDCC label (at C26, implied); chain copies: 4; single strand. Background: In EMSA bound probe runs differently from free probe, usually more slowly.

T1 sequence (P0AGE0 whole entry G27C): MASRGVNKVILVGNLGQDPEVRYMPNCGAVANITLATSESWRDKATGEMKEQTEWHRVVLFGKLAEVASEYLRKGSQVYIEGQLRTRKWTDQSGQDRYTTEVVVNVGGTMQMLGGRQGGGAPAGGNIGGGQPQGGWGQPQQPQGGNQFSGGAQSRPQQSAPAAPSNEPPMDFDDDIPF

B1: ssRNA70 (ssRNA)
RNA: UUAGUUGUUCGUAGUGCUCGUCUGGCUCUGGAUUACCCGCUUAGUUGUUCGUAGUGCUCGUCUGGCUCUG
Take B1: the binding signal in the series with MDCC-SSB [1] is 2.1 fold fluorescence increase.

B2: ssDNA70 (dT70) (ssDNA)
DNA: TTTTTTTTTTTTTTTTTTTTTTTTTTTTTTTTTTTTTTTTTTTTTTTTTTTTTTTTTTTTTTTTTTTTTT
As for B2, the binding signal with MDCC-SSB [2] is 1.9 fold fluorescence increase.

These data come from paper PMC5811048, “Application of the SSB biosensor to study in vitro transcription”.
